From paper PMC7791120 (2021) come the findings set out here.

This experiment deals with T1, purified TRIB2 protein (ab186094, Abcam) (Homo sapiens (Human), UniProt Q92519).
T1 chain: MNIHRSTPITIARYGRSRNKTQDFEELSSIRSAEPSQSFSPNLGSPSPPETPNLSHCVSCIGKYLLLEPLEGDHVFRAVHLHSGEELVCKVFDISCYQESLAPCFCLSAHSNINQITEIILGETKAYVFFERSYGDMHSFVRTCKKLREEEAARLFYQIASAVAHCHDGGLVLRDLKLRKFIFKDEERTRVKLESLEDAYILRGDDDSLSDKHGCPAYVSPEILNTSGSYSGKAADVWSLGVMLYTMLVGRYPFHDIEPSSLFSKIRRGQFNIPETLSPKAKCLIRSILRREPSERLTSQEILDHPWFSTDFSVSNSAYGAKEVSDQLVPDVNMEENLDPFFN
Description: in vitro reciprocal co-IP.

B1: purified PCBP2 protein (H00005094-P01, Abnova) (protein)
chain: MDTGVIEGGLNVTLTIRLLMHGKEVGSIIGKKGESVKKMREESGARINISEGNCPERIITLAGPTNAIFKAFAMIIDKLEEDISSSMTNSTAASRPPVTLRLVVPASQCGSLIGKGGCKIKEIRESTGAQVQVAGDMLPNSTERAITIAGIPQSIIECVKQICVVMLETLSQSPPKGVTIPYRPKPSSSPVIFAGGQDRYSTGSDSASFPHTTPSMCLNPDLEGPPLEAYTIQGQYAIPQPDLTKLHQLAMQQSHFPMTHGNTGFSGIESSSPEVKGYWGLDASAQTTSHELTIPNDLIGCIIGRQGAKINEIRQMSGAQIKIANPVEGSTDRQVTITGSAASISLAQYLINVRLSSETGGMGSS
Take B1: the binding result is “binds”.
